Target: D. melanogaster cellular repressor of E1A-stimulated genes (dCREG), residues 24-212, produced in E. coli from pFO4/dCREG (D. melanogaster)
Test: SEC; Superdex 75 HR 10/30, 50 mM sodium phosphate buffer pH 7.0, 150 mM NaCl, flow 0.5 ml/min, absorbance at 280 nm

stoichiometry N: 2
Substance: D. melanogaster cellular repressor of E1A-stimulated genes (dCREG), residues 24-212, produced in E. coli from pFO4/dCREG (natural protein)

Source: publication PMC4331662
